This test addresses biotinylated Aβ1-28 peptide. Briefly: ELISA, biotinylated peptide (Anaspec) on streptavidin plate, 10 µg/ml mAb. To be noted: remark: other sources report otherwise.

Chain of biotinylated Aβ1-28 peptide (chain, as listed by the source): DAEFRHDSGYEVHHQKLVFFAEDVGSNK

B1: mouse monoclonal antibody ACI-11-Ab-9 (antibody, V domains shown)
VL: QAVVTQESALTTSPGGTVILTCRSSTGAVTTSNYANWVQEKPDHLFTGLIGGTSNRAPGVPVRFSGSLIGDKAALTITGAQTEDDAMYFCALWYSTHYVFGGGTKVTVL
VH: QVQLQQSDAELVKPGASVKISCKVSGYTFTDHTIHWMKQRPEQGLEWIGYIYPRDGSTKYNEKFKGKATLTADKSSSTAYMQLNSLTSEDSAVYFCARDYGYAFDYWGQGTTLTVSS
modifications: here or on the partner: biotinylated (position not given)
B1 showed an O.D. after background subtraction (mean) of 0.53 O.D.
